Source: the supplement of paper PMC9170038

System: MS2 coat protein
Test: apparent KD of MS2 coat protein; designed switch direction (-1 OFF switch, 1 ON switch): -1; higher = weaker reporter binding
Procedure, shortened: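 Stalled E. coli RNA polymerase transcribed designed RNA switches on Illumina chips, which were then titrated with SNAP-549-labelled MS2 coat protein, doubling from 0.7 or 1.5 nM to 3 µM. Steps lasted from 0.8–1.5 h at the lowest concentration to 10–20 min at the highest. The apparent KD is each design's median over clusters of curve-fitted normalised fluorescence.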

[1] = Eterna round: R95, input ligand: microRNA oligo, concentration not stated
[2] = input ligand: microRNA oligo, concentration not stated
[3] = Eterna round: R95, input ligand: FMN 200 uM
[4] = Eterna round: R95, input ligand: none

Sequence	apparent KD of MS2 coat protein (input ligand: FMN 200 uM) [nM]	apparent KD of MS2 coat protein (input ligand: none) [nM]	apparent KD of MS2 coat protein [1] [nM]	apparent KD of MS2 coat protein [2] [nM]	other results
GUCAUGAUAGGAUAUUACGGACGGAACAUGAGGAUCACCCAUGUGUCCCAAUCCAACUGAUAAGAAGGAUCAUGGC [Eternabot (Original) Solution 34] (Eterna round: R97, puzzle: Exclusion 5)	18.8	14.5	–	–	–
GUCCAACAUGAGGAUCACCCAUGUCAGGAUAUGCGAAUUUCAUCAAAAGAUGAAAUUUGCAGAAGGGACUGGAC [Omei Ex1 A29] (Eterna round: R97, puzzle: Exclusion 1)	44	23.3	–	–	–
GUCCUACAUGAGGAUCACCCAUGUAAGGAUAUGCUAGCGGUCGGAUGACUGACUGCUAGCAGAAGGUACAUGAU [Mat - Mod of JL D78] (puzzle: Exclusion 1)	–	–	15.5	–	–
GUCGUGCGGCUUUGCUGUACGAGUACAUGAGGAUCACCCAUGUAGGAUAUGGUACGCUUUGCGUGCCAGAAGGGCGUGCGUUGG [salish99_ExNG3_r04_006] (Eterna round: R96, puzzle: Exclusion NG 3)	33.3	29.9	–	23.9	–
GUCGUGCGGCUUUGCUGUACGAGUACAUGAGGAUCACCCAUGUAGGAUAUGGUUCGUUUUGCGUGCCAGAAGGGCGUGCGUUGU [Excl-NG3-LRO14] (Eterna round: R96, puzzle: Exclusion NG 3)	–	–	–	15.1	–
GUCGUGCGGCUUUGCUGUGCGGGUGCAUGAGGAUCACCCAUGUAGGAUAUGGUACGCUUUGCGUGCCAGAAGGGCGUGCGUUGG [salish99_ExNG3_r04_009] (Eterna round: R96, puzzle: Exclusion NG 3)	154	110	–	114	–
GUCUGGCUAGGAUAUACAGUGUCCACAAGUUAGUUACCCUAACAUGAGGAUCACCCAUGUAGAAGGAGUGAGAA [Revebeed] (Eterna round: R96, puzzle: Exclusion 2)	355	45.4	–	34.7	–
GUCUUGUCAGGAUAUCUUACAUAACCAUCGUAGUUACAAUUGGAGAAGGGACAUGAGGAUCACCCAUGUUUGCG [tap-tap-tappy32] (Eterna round: R97, puzzle: Exclusion 4)	34.8	26.6	–	–	–
GUGAAACAUGAGGAUCACCCAUGUGAGGAUAUGUUUUAGUACUGCAGACAGUACAUCUAUAGAAGGCACAAUGG [Mat - Mod of JL D74] (puzzle: Exclusion 1)	–	–	37	–	–
GUGAAGGUAGGAUAUACGAUAAUAUAGGGUAGAUAUAUAACACAUGAGGAUCACCCAUGUAGAAGGACCAAGUG [Mat - Exclusion 2 - Mod of my Tesla design - D61] (puzzle: Exclusion 2)	–	–	46	–	–
GUGAUCUAUCAUGUAAUCAACAUGAGGAUCACCCAUGUAGACAAGUUUUUUGCUCGUCUGAUAAUAAGAUAGAUCAC [Antenna 16 - Jieux - Sensor, turn-off variant 1] (Eterna round: R97, puzzle: Sensor, turn-off variant 1)	13.8	12.3	–	–	–
GUGCAAUGAGGAUAUACGUAGGUGAACAUCUGUGUGCUCCUACAUGAGGAUCACCCAUGUAGAAGGCAUGUCAC [LRO-Excl2-17] (puzzle: Exclusion 2)	–	–	13.1	–	–
GUGCCGCGAGGAUAUACAGACGGGUCCAAAACGUGUCUCGGACUUGAGGAUCACCCAAGUAGAAGGCGUUUCAG [salish99_ex2_r4_620] (Eterna round: R97, puzzle: Exclusion 2)	18.6	18.4	–	–	–
GUGCUAUAGGAAGGAUAUACUUCAUUAGACUAACAUGAGGAUCACCCAUGUAACCUUAUGUAUGUGUAGAAGGUCCAUAGCUUA (Eterna round: R96, puzzle: Exclusion NG 2)	15.5	20.1	–	13.3	–
GUGGGUUACAUGAGGAUCACCCAUGUAGAGUGGGAAGAGAGAUAGGAUAUGAUGUGAGAAUCAUAUCAGAAGGAUCGAGACUCG [AK ExNG3-2.3] (Eterna round: R96, puzzle: Exclusion NG 3)	512	354	–	158	–
GUGGGUUACAUGAGGAUCACCCAUGUAUAGUGGGAAGAGAUAUAGGAUAUAAUAUAAAAAUUAUAUUAGAAGGAUAGAGACUAG [AK ExNG3-1.2] (Eterna round: R96, puzzle: Exclusion NG 3)	491	505	–	285	–

Sequence	apparent KD of MS2 coat protein (input ligand: FMN 200 uM) [nM]	apparent KD of MS2 coat protein (input ligand: none) [nM]	apparent KD of MS2 coat protein [1] [nM]	apparent KD of MS2 coat protein [2] [nM]	other results
GUGGGUUAUGUCAGGAUAUGGCCGUUAGGGCGACGCCAGAAGGGACAUGAGGAUCACCCAUGUCUCCGGGCAUC [BmEX4 C.10] (Eterna round: R97, puzzle: Brourd's mod of Exclusion 4)	15.1	14.8	–	–	–
GUGUACAGAGGAUAUACAAUAGGAGUUACGAAAGUAACUUCACAUGAGGAUCACCCAUGUAGAAGGCUGUACAC [Dot plot directed v8] (puzzle: Exclusion 2)	–	–	17.7	–	–
GUGUACGGAGGAUAUAUAUGGGCAGCAUACGCUGCAGCUUCACAUGAGGAUCACCCAUGUAGAAGGCUGUACAC [Mat - Exclusion 2 - Mod of Hyphema - D100] (Eterna round: R96, puzzle: Exclusion 2)	223	24.8	–	18.5	–
GUGUACGGAGGAUAUAUAUGGGCAGCAUACGCUGCAGCUUCACAUGAGGAUCACCCAUGUAGAAGGCUGUACAC [Mat - Exclusion 2 - Mod of Hyphema - D100] (puzzle: Exclusion 2)	–	–	22	–	–
GUGUAGACAGGAUAUGCUUUGAGCGUAUGAGAGUAGGCUCGACAUGAGGAUCACCCAUGUAGAAGGGUCUACAC [LRO-Excl2-03] (puzzle: Exclusion 2)	–	–	10.1	–	–
GUGUAGAUAGGAUAUGCAAGAGUCUAGCGAAGCUAGAUUCUACAUGAGGAUCACCCAUGUAGAAGGGUCUACAC [Fiskers Ex 2 - 29] (puzzle: Exclusion 2)	–	–	17.3	–	–
GUGUAGUCAGGAUAUACAUAGGAAGAGAAGAGAAGAGAAGCACAUGAGGAUCACCCAUGUAGAAGGGACAGUGU [Excluse me!! 4 - Jieux - Exclusion 2] (Eterna round: R96, puzzle: Exclusion 2)	–	–	–	40.1	–
GUGUAGUCAGGAUAUACAUAGGAAGAGAAGAGAAGAGAAGCACAUGAGGAUCACCCAUGUAGAAGGGACAGUGU [Excluse me!! 4 - Jieux - Exclusion 2] (puzzle: Exclusion 2)	–	–	61.4	–	apparent KD of MS2 coat protein [3]: 85.7 nM; apparent KD of MS2 coat protein [4]: 61 nM
GUGUAGUCAGGAUAUACAUGAGGAUCACCCAUGUGAAUAAGAUAGAAUAAGAUAAAGUGUAGAAGGGACAGUGU [Excluse me!!! 4 - Jieux - Exclusion 3] (puzzle: Exclusion 3)	–	–	34.1	–	apparent KD of MS2 coat protein [3]: 33.8 nM; apparent KD of MS2 coat protein [4]: 35.9 nM
GUGUCUCGUGUAGGAUAUGCGCGAGGUCUUUGUGCAGAAGGACAUGAGGAUCACCCAUGUAUUCCGCGGCGCGGGCAUGUGUCC [-29/-27 Kcal and A 18%] (Eterna round: R96, puzzle: Exclusion NG 1)	249	52.5	–	46.7	–
GUGUGCUGAGGAUAUACAGAGGAAGAUAAGAUAAGAUAAUGACAUGAGGAUCACCCAUGUAGAAGGCAGAGUGU [Excluse me!! 15 - Jieux - Exclusion 2] (puzzle: Exclusion 2)	–	–	30.5	–	–
GUGUUACAAGUGAGGAUAUCUGCUUUGGUAGAAGCGGAGAAGGCACAUGAGGAUCACCCAUGUCAGGAGUCCAU [Eternabot (L2) Solution 20] (Eterna round: R97, puzzle: Brourd's mod of Exclusion 4)	393	59.3	–	–	–
GUGUUGCGAGGAUAUAUAAGGGUAUGUUCUUAGGAUAUGGAACAUGAGGAUCACCCAUGUAGAAGGUGCAUAAC [JR_Ex2_Sub046] (Eterna round: R97, puzzle: Exclusion 2)	459	761	–	–	–
GUUAGACAUGAGGAUCACCCAUGUGAGGAUAUGAUGUGAAUAAAUAAUUAAUUAAGUAUCAGAAGGCACAUAUG [Mat - Mod of Hyphema D32] (puzzle: Exclusion 1)	–	–	119	–	–
GUUAGUUAAGGAUAUACUGGGAGCUGCGGCGUCUCGCCGCAACAUGAGGAUCACCCAUGUAGAAGGUGACCGUU [JL ViennaUCT Enbibi mod 6] (puzzle: Exclusion 2)	–	–	283	–	–
GUUGUGUGAGGAUAUGCCUGGCCGUGAGGCCAGAUUGGGUGGCAGAAGGUACAUGAGGAUCACCCAUGUACGGG [salish99_ex4_4_005] (Eterna round: R97, puzzle: Exclusion 4)	47.7	47.5	–	–	–
